Measurements from US20220040232A1.

How the values were obtained:
[1] = target: cell surface receptors for M1 peptide (TCR Vβ17) on expanded Vβ17+CD8+ T cells; experiment: flow cytometry, […] (91.6) […]
[2] = target: cell surface receptors for M1 peptide (TCR Vβ17) on expanded Vβ17+CD8+ T cells; experiment: tetramer staining, flow cytometry on enriched Vβ17+CD8+ T cells expanded with M1 peptide and IL-2
[3] = target: cell surface receptors for M1 peptide (TCR Vβ17) on expanded Vβ17+CD8+ T cells; experiment: flow cytometry, staining with M1 peptide loaded MHC class I tetramer and anti-human Vβ17 mAb; enriched Vβ17+CD8+ T cells from day 12 PBMCs stimulated with M1 peptide and IL-2

Substance “Influenza A derived Matrix protein (M1) peptide loaded MHC class I tetramer (MBL, Catalog No. TS-0012-2C) (peptide-MHC)” has a % M1 Tet-negative Vβ17+ cells among gated Vβ17+CD8+ T cells [1] of 11.9%, a % M1 Tet-positive Vβ17+ cells among gated Vβ17+CD8+ T cells [1] of 86.8% and a percent of expanded Vβ17+CD8+ T cells positive for the tetramer [2] of 86%. It also gave a % M1 Tet-negative Vβ17+ cells among enriched Vβ17+CD8+ T cells [3] of 11.9% and a % M1 Tet-positive Vβ17+ cells among enriched Vβ17+CD8+ T cells [3] of 86.8%.
